Source: patent publication US20140087995A1 (published 2014)
Numbered stars: 1 amine (or outer) side, 2 acyl side, 3 side chain; on linkers, the order of the positions; unused ones are H or OH. Bridge positions count the residues as written; N and C are the ends. Side chains are listed from the residue outwards. Ends that are not written are not given here. * marks the point of attachment. C20 diacid = O=C(O)CCCCCCCCCCCCCCCCCCC(=O)*; γGlu = O=C(O)[C@H](CCC(=O)[*:2])N[*:1]

T1: human calcitonin receptor (human, UniProt P30988 25-474)
T1 construct: whole, on cells; Used as membranes prepared from the transfected cells (Assay VII); also called hCTR; hCT
T1 sequence (looked up): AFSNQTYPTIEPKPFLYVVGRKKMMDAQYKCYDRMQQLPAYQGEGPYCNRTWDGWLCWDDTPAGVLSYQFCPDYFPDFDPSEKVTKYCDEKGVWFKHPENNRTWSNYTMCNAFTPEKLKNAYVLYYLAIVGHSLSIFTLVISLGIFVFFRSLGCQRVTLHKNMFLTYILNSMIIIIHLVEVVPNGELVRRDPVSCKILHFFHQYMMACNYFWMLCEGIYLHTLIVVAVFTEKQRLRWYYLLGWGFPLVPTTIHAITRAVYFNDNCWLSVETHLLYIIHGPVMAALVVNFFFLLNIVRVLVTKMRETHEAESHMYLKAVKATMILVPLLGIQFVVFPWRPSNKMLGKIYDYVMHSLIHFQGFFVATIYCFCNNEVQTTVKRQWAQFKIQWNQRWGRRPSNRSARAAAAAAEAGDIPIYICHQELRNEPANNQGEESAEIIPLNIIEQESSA

T2: rat calcitonin receptor (rat, UniProt P32214 25-516)
T2 construct: whole, on cells; Used as membranes prepared from the transfected cells; also called rCTR; rat calcitonin (a) receptor
T2 sequence (looked up): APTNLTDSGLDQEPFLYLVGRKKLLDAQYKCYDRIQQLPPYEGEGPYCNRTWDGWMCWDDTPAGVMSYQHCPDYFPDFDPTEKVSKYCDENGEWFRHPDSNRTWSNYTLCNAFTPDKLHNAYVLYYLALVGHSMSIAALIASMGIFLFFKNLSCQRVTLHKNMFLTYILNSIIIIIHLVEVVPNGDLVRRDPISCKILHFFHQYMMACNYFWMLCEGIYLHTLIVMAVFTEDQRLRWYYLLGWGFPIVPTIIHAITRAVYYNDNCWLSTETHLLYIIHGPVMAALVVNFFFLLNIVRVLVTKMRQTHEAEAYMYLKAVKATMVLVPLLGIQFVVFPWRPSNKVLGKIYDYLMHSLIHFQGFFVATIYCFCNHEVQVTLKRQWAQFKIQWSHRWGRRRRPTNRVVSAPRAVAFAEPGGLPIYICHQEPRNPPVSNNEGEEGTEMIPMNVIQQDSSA

T3: rat amylin receptor (rat calcitonin receptor + rat RAMP 3) (rat, UniProt P32214 25-516; Q9JJ73 23-147)
T3 construct: whole, on cells; Used as membranes prepared from the transfected cells; also called rAmylin-R; rat amylin 3(a) receptor
T3 sequence (looked up) 1: T2 sequence (looked up)
T3 sequence (looked up) 2: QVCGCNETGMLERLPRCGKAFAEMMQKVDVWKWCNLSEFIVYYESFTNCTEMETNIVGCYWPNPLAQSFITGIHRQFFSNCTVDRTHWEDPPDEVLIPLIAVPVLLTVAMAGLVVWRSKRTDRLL

B1: N^ε1-[(4S)-4-carboxy-4-(19-carboxynonadecanoylamino)butanoyl]-[Arg17,Pro21,Pro27,Glu35]-h-amylin (peptide)
peptide: K([γGlu-C20 diacid])CNTATCATQRLANFLRHSSPNFGAIPSSTNVGSETY-NH2
modifications: disulfide 2-7; N-terminus assumed
SMILES: CC[C@H](C)[C@H](NC(=O)[C@H](C)NC(=O)CNC(=O)[C@H](Cc1ccccc1)NC(=O)[C@H](CC(N)=O)NC(=O)[C@@H]1CCCN1C(=O)[C@H](CO)NC(=O)[C@H](CO)NC(=O)[C@H](Cc1c[nH]cn1)NC(=O)[C@H](CCCNC(=N)N)NC(=O)[C@H](CC(C)C)NC(=O)[C@H](Cc1ccccc1)NC(=O)[C@H](CC(N)=O)NC(=O)[C@H](C)NC(=O)[C@H](CC(C)C)NC(=O)[C@H](CCCNC(=N)N)NC(=O)[C@H](CCC(N)=O)NC(=O)[C@@H](NC(=O)[C@H](C)NC(=O)[C@@H]1CSSC[C@H](NC(=O)[C@@H](N)CCCCNC(=O)CC[C@H](NC(=O)CCCCCCCCCCCCCCCCCCC(=O)O)C(=O)O)C(=O)N[C@@H](CC(N)=O)C(=O)N[C@@H]([C@@H](C)O)C(=O)N[C@@H](C)C(=O)N[C@@H]([C@@H](C)O)C(=O)N1)[C@@H](C)O)C(=O)N1CCC[C@H]1C(=O)N[C@@H](CO)C(=O)N[C@@H](CO)C(=O)N[C@H](C(=O)N[C@@H](CC(N)=O)C(=O)N[C@H](C(=O)NCC(=O)N[C@@H](CO)C(=O)N[C@@H](CCC(=O)O)C(=O)N[C@H](C(=O)N[C@@H](Cc1ccc(O)cc1)C(N)=O)[C@@H](C)O)C(C)C)[C@@H](C)O
notes: Derivative of human amylin; also called compound 27
B2: N^ε1-[(4S)-4-carboxy-4-(19-carboxynonadecanoylamino)butanoyl]-[Arg17,Pro21,Pro27,Lys35]-h-amylin (peptide)
peptide: K([γGlu-C20 diacid])CNTATCATQRLANFLRHSSPNFGAIPSSTNVGSKTY-NH2
modifications: disulfide 2-7; N-terminus assumed
SMILES: CC[C@H](C)[C@H](NC(=O)[C@H](C)NC(=O)CNC(=O)[C@H](Cc1ccccc1)NC(=O)[C@H](CC(N)=O)NC(=O)[C@@H]1CCCN1C(=O)[C@H](CO)NC(=O)[C@H](CO)NC(=O)[C@H](Cc1c[nH]cn1)NC(=O)[C@H](CCCNC(=N)N)NC(=O)[C@H](CC(C)C)NC(=O)[C@H](Cc1ccccc1)NC(=O)[C@H](CC(N)=O)NC(=O)[C@H](C)NC(=O)[C@H](CC(C)C)NC(=O)[C@H](CCCNC(=N)N)NC(=O)[C@H](CCC(N)=O)NC(=O)[C@@H](NC(=O)[C@H](C)NC(=O)[C@@H]1CSSC[C@H](NC(=O)[C@@H](N)CCCCNC(=O)CC[C@H](NC(=O)CCCCCCCCCCCCCCCCCCC(=O)O)C(=O)O)C(=O)N[C@@H](CC(N)=O)C(=O)N[C@@H]([C@@H](C)O)C(=O)N[C@@H](C)C(=O)N[C@@H]([C@@H](C)O)C(=O)N1)[C@@H](C)O)C(=O)N1CCC[C@H]1C(=O)N[C@@H](CO)C(=O)N[C@@H](CO)C(=O)N[C@H](C(=O)N[C@@H](CC(N)=O)C(=O)N[C@H](C(=O)NCC(=O)N[C@@H](CO)C(=O)N[C@@H](CCCCN)C(=O)N[C@H](C(=O)N[C@@H](Cc1ccc(O)cc1)C(N)=O)[C@@H](C)O)C(C)C)[C@@H](C)O
notes: Derivative of human amylin; also called compound 35
B3: N^ε1-[(4S)-4-carboxy-4-[[(4S)-4-carboxy-4-(19-carboxynonadecanoylamino)butanoyl]amino]butanoyl]-[Asp14,Arg17,Pro21,Pro26,Asp35]-h-amylin (peptide)
peptide: K([γGlu-γGlu-C20 diacid])CNTATCATQRLADFLRHSSPNFGAPLSSTNVGSDTY-NH2
modifications: disulfide 2-7; N-terminus assumed
SMILES: CC(C)C[C@H](NC(=O)[C@H](CCCNC(=N)N)NC(=O)[C@H](CCC(N)=O)NC(=O)[C@@H](NC(=O)[C@H](C)NC(=O)[C@@H]1CSSC[C@H](NC(=O)[C@@H](N)CCCCNC(=O)CC[C@H](NC(=O)CC[C@H](NC(=O)CCCCCCCCCCCCCCCCCCC(=O)O)C(=O)O)C(=O)O)C(=O)N[C@@H](CC(N)=O)C(=O)N[C@@H]([C@@H](C)O)C(=O)N[C@@H](C)C(=O)N[C@@H]([C@@H](C)O)C(=O)N1)[C@@H](C)O)C(=O)N[C@@H](C)C(=O)N[C@@H](CC(=O)O)C(=O)N[C@@H](Cc1ccccc1)C(=O)N[C@@H](CC(C)C)C(=O)N[C@@H](CCCNC(=N)N)C(=O)N[C@@H](Cc1c[nH]cn1)C(=O)N[C@@H](CO)C(=O)N[C@@H](CO)C(=O)N1CCC[C@H]1C(=O)N[C@@H](CC(N)=O)C(=O)N[C@@H](Cc1ccccc1)C(=O)NCC(=O)N[C@@H](C)C(=O)N1CCC[C@H]1C(=O)N[C@@H](CC(C)C)C(=O)N[C@@H](CO)C(=O)N[C@@H](CO)C(=O)N[C@H](C(=O)N[C@@H](CC(N)=O)C(=O)N[C@H](C(=O)NCC(=O)N[C@@H](CO)C(=O)N[C@@H](CC(=O)O)C(=O)N[C@H](C(=O)N[C@@H](Cc1ccc(O)cc1)C(N)=O)[C@@H](C)O)C(C)C)[C@@H](C)O
notes: Derivative of human amylin; also called compound 1
B4: N^ε1-[(4S)-4-carboxy-4-[[(4S)-4-carboxy-4-(19-carboxynonadecanoylamino)butanoyl]amino]butanoyl]-[Asp14,Arg17,Pro21,Pro27,Asp35]-h-amylin (peptide)
peptide: K([γGlu-γGlu-C20 diacid])CNTATCATQRLADFLRHSSPNFGAIPSSTNVGSDTY-NH2
modifications: disulfide 2-7; N-terminus assumed
SMILES: CC[C@H](C)[C@H](NC(=O)[C@H](C)NC(=O)CNC(=O)[C@H](Cc1ccccc1)NC(=O)[C@H](CC(N)=O)NC(=O)[C@@H]1CCCN1C(=O)[C@H](CO)NC(=O)[C@H](CO)NC(=O)[C@H](Cc1c[nH]cn1)NC(=O)[C@H](CCCNC(=N)N)NC(=O)[C@H](CC(C)C)NC(=O)[C@H](Cc1ccccc1)NC(=O)[C@H](CC(=O)O)NC(=O)[C@H](C)NC(=O)[C@H](CC(C)C)NC(=O)[C@H](CCCNC(=N)N)NC(=O)[C@H](CCC(N)=O)NC(=O)[C@@H](NC(=O)[C@H](C)NC(=O)[C@@H]1CSSC[C@H](NC(=O)[C@@H](N)CCCCNC(=O)CC[C@H](NC(=O)CC[C@H](NC(=O)CCCCCCCCCCCCCCCCCCC(=O)O)C(=O)O)C(=O)O)C(=O)N[C@@H](CC(N)=O)C(=O)N[C@@H]([C@@H](C)O)C(=O)N[C@@H](C)C(=O)N[C@@H]([C@@H](C)O)C(=O)N1)[C@@H](C)O)C(=O)N1CCC[C@H]1C(=O)N[C@@H](CO)C(=O)N[C@@H](CO)C(=O)N[C@H](C(=O)N[C@@H](CC(N)=O)C(=O)N[C@H](C(=O)NCC(=O)N[C@@H](CO)C(=O)N[C@@H](CC(=O)O)C(=O)N[C@H](C(=O)N[C@@H](Cc1ccc(O)cc1)C(N)=O)[C@@H](C)O)C(C)C)[C@@H](C)O
notes: Derivative of human amylin; also called compound 2
B5: N^ε1-[(4S)-4-carboxy-4-[[(4S)-4-carboxy-4-(19-carboxynonadecanoylamino)butanoyl]amino]butanoyl]-[Asp14,Arg17,Pro22,Pro26,Asp35]-h-amylin (peptide)
peptide: K([γGlu-γGlu-C20 diacid])CNTATCATQRLADFLRHSSNPFGAPLSSTNVGSDTY-NH2
modifications: disulfide 2-7; N-terminus assumed
SMILES: CC(C)C[C@H](NC(=O)[C@H](CCCNC(=N)N)NC(=O)[C@H](CCC(N)=O)NC(=O)[C@@H](NC(=O)[C@H](C)NC(=O)[C@@H]1CSSC[C@H](NC(=O)[C@@H](N)CCCCNC(=O)CC[C@H](NC(=O)CC[C@H](NC(=O)CCCCCCCCCCCCCCCCCCC(=O)O)C(=O)O)C(=O)O)C(=O)N[C@@H](CC(N)=O)C(=O)N[C@@H]([C@@H](C)O)C(=O)N[C@@H](C)C(=O)N[C@@H]([C@@H](C)O)C(=O)N1)[C@@H](C)O)C(=O)N[C@@H](C)C(=O)N[C@@H](CC(=O)O)C(=O)N[C@@H](Cc1ccccc1)C(=O)N[C@@H](CC(C)C)C(=O)N[C@@H](CCCNC(=N)N)C(=O)N[C@@H](Cc1c[nH]cn1)C(=O)N[C@@H](CO)C(=O)N[C@@H](CO)C(=O)N[C@@H](CC(N)=O)C(=O)N1CCC[C@H]1C(=O)N[C@@H](Cc1ccccc1)C(=O)NCC(=O)N[C@@H](C)C(=O)N1CCC[C@H]1C(=O)N[C@@H](CC(C)C)C(=O)N[C@@H](CO)C(=O)N[C@@H](CO)C(=O)N[C@H](C(=O)N[C@@H](CC(N)=O)C(=O)N[C@H](C(=O)NCC(=O)N[C@@H](CO)C(=O)N[C@@H](CC(=O)O)C(=O)N[C@H](C(=O)N[C@@H](Cc1ccc(O)cc1)C(N)=O)[C@@H](C)O)C(C)C)[C@@H](C)O
notes: Derivative of human amylin; also called compound 3

These binders were tested against T1, human calcitonin receptor (assay: ratio IC50 human calcitonin receptor / IC50 human amylin receptor (Assays VII and V)).
Summary of the method: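 Competition binding by SPA uses membrane preparations (35 ng/μL final) in pH 7.4 Hepes buffer with 1 mM CaCl2 and 5 mM MgCl₂. Incubation lasts 120 min at 25° C, and IC₅₀ comes from one-site fitting.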

Binder | Ratio hCT/hAmylin binding
B1 | 41.3
B2 | 50.3
B3 | 27.6
B4 | 47.5
B5 | 17.3

Each binder was assayed against T2, rat calcitonin receptor (assay: SPA competition with 125I-calcitonin, membranes of BHK cells with rat calcitonin receptor (Assay VIII)).

Binder | IC50 [nM]
B1 | 90.2
B2 | 61.7
B3 | 135
B4 | 108
B5 | 16.7

These binders were tested against T3, rat amylin receptor (rat calcitonin …) (assay: SPA competition with 125I-rat amylin, membranes of BHK cells with rat calcitonin receptor + rat RAMP3 (Assay VI)).

Binder | IC50 [nM]
B1 | 0.614
B2 | 0.948
B3 | 1.3
B4 | 0.295
B5 | 1

These binders were tested against T2, rat calcitonin receptor (assay: ratio IC50 rat calcitonin receptor / IC50 rat amylin receptor (Assays VIII and VI)).

Binder | Ratio rCT/rAmylin binding
B1 | 147
B2 | 65.1
B3 | 104
B4 | 366
B5 | 16.7
